Drawing on publication PMC11098746 (2024), this text covers binding score for eight molecules.

For the test, the target named is FGFR4 ectodomain (Homo sapiens, UniProt P22455). Put plainly: AVEXIS normalised luminescence.

B1: 75 (protein)
chain: NVVAPKSAEAVHTLTAKLDTENKAHQKYIDIINGVFSENMENFVFSITTSNGFTCSINKLDVIFDNKVTGMQKVFSDENVQYIKEASLEFKNNLLEYMKGVMPSENDFSNVRKEFQKVCVKYFSELRRKFFQIYRDPNNKNQNEDNVDNHMNIEEISQEFFSGFNPFGTMKIRKEQNPDLSQKDSLILNENNNDALTSADQKNNNMVPMENRAFSYSQQSSHVVSFDGHDEHVEQQEQHSGDNTQEDKDQLMDLPFNKDKVFSTFLKNVALLIEGNCAEAQQQAQEQTQEQTEEQEEEQNEKEIESDKQVQKDGEQKENDVQKKQKANAFTIQFSSSLSRKHISTTCNAASGNVFLRKGNKPFEHFNSPNFENMMKGVFGIIQNPFENGQPTFPFFKNINSISGIGNVDIPKNFMNDFLNNGNDQNTPISS
modifications: bait human Fc-tagged dimer
Molecule B1 showed a binding score of 1.05.

B2: 33 (protein)
chain: SSNDKNKINKNNMPLQRGASNLKDINIHNVEKKSNMESVNNNINNAACSKNLNANKVPNVAHTGVNKKGETKNEEVEKEENENEEIEKEEIENEENQQNEEDENEENQQNEEDENEENQQMNVNVDVSAEKKNKELPEEKKELQKNSEKNINKEVIKDSNKDNTFNFHKNINTAFNKNKNIYNNNNNNNNNNKAFIEKKEEAIDMKKTHCSNNNKMCKYNNMNNHMSTNKNNNQIFEESKQNVNKPIYNLKSLGNNAFKNDEKYNENDYKNNHDDDKKKYTDDSNEENIYEERNQKILLIHLLKNIKELLNRQRQNFNNFLSFLSENYQSYEKFYKSQKYQNGKNYIDKLDQQGELKNVAVVTHSFLDMSKAANGKKDKNGVFVKLMNDQNDDGDDTKDGDDTKDEDDHKNEDDHKNEDDHKNEDDHKNEDDHKNGDDNKNGDDHKNGDDNKNGDDDNGKKSHDISDIKNIIDTILQSDDITDEQKKYLEIIKKILDLEEDVLNKEKEQLQLNKNIIEVLMGKSDELRNIAVNLKNGNGDNEASQRVDLAQNIVSNLLNFAVQLKNTGNIVYNNIQGQGELLQSIEKNIDKAENDLKKSTSVNTAFTPKNVPNTEQNDQETQTDDDINDADIDENNNANDKNNCHMYKKNNCHMYKKNNCKKYFLNSHYNNYLCKKQKKYNKNDMGNKQKDNKKFKLNEAMKNHFYNIFVKETVMLKKLYKVLFELF
modifications: bait human Fc-tagged dimer
With B2, the binding score was found to be 1.23.

B3: 87 (protein)
chain: LKKGNGDFIKKNGVFFQIDRDMNEPPYSVINVFYTESLLDDNLLNQLEKERKMGKYKTQNYFRKSLDNNKYFMEYSRKQKEQLEFLLE
modifications: bait human Fc-tagged dimer
As to B3, the binding score is 1.61.

B4: 74 (protein)
chain: YNLNNDLSKNNNFALNTYVRKDDVEDDSKNEIVDNIQKMVDDFSDDIGFVKTSMREVLLDTEASLEEVSDHVVQNIAKYSLTIEEKLNLFDGLLEEFIENNKGLISNLAKRQQKLKGDKIKKVCDLILKKLKKLENVNKLIKYKIILKYGNKDNKKEMIQTLKNEEGLSDDFKNNLANYETEQNNDDIKEIELVNFISTNYDKFVVNLEDLNKELLKDLNMALS
modifications: bait human Fc-tagged dimer
In turn, B4 had a binding score of 1.05.

B5: 72 (protein)
chain: SNHIKSVNRCFIPFISEYIYKQKNRKNNIAYDSSNSHYNDKIIPCGNYNKQLKYKINFCRNLYFNNKNEYNRICSRNKLNFHNIQTDNTIYKPKKKYYEVGKVREKIKMYTLFKDDKINTLKCNEEESVTSETINKHDSSVKVKGRRKKNIASNENIMNPNNKAVSSINTNLADSSNNKNDNSLNSKKNDNTLNSKKNDNTLNSKKNDNTLNSKNNNNALNSKNNNNALNSKKSNNAYNDKHIDHIIPEGKNKINNNIDVKHNINNKLNEINEEPYEDTHNKEENSANKNDNDEKRKEENNNIARRYIKNDQMSYNNINTNSNEYDKNAATLDETYIGKTFEGYVYSVNKNAACIKLKNINKYGLLFKNKANLGDDIEDMNDFFEKDQPVHVKILGINTKKNIFYLGNIIKYNENIKLSKGEYSKGLITKVCDSYCFIKVLKNGATGYLHKSKLFCMNDKEKKNNDNQNYDNPNNDNPNYDNQNYDNQNYNNPNYDHPNYDNQNYDNQNYNNPNNDYSTSQLYNSDNLQMDFIYKLQFTKIFNIWDIIDVEILGTPQNDYKSNYILTIPRGSKTFKKILNYLNVLKENEDINNIQYKGDYIYSIDNNKNDNIIDSDINNHHINNKKKKKNLYDIQNNMNHAPFNKFHTEDEYLFNDHVQENVHTFYEKNKKYKITYDKENNHKMNKAYYLKKNKELPFNNKFKKIIKNIYDLPNTISLSMLSKTIKIPLASIKKYFIIHENKEYNSAYKINSEQIKRICQHFKIDCNVEQRDDNVVTKVNGATKDCQEKVFKNVAQDRLKEGEQERVIKVEAKIKNDEMVMQEQKDTKEEKHMDVQFIEEKDINVQHINVQDMDVQDMDVQDINVQDMDVQNINVQDINIQDMDVQNINNAITLNKATSCQTDESRDAPGGDQNEALDEKDSMEKSKEKKKKKGKSRKKNKDTNLALKSDSIQKSKTTLDDKKRNVVVTFIGHINHGKTSLFDYICKTNEQKKEYGLITQNIRAFKATVRNNFAFTLVDTPGHEAFMPMRSRGVKISDLSILVISGDEGIQEQTVECIKLIKEFNIKIIIAITKVDIPNVDVDRIINDLLYHDITTELNGGEIQVVECSIYKEESIDKLLDAIYLESEFLNLQTNPDKKHEQAQGVVLDSYIDKNGIVSINLLQNGVLNINDHFYTGSSYGKVKILKDHLNKNIKSAYPSDPIKIIGYNKNSVPVAGDKFYVVENEALAKEIAEHNKNKMLTMEINNFAYDQTNMNRYKDFIISRENKIGGSSGILGENNLKNDIDGNMARDDNMARDDNMASDDNMARDGNRANNDNIASDDNMANDYDKIKETKMYTNNKAFQKDDFLKIHLNNANENVINMDPSTHIGKNEIKTIYSNYIIKCDKQGSIEVLKNCMLKLQKEDSICKIKNKIIYADIGNVASSDIKYATSFNAAIIAFGVKLSNDIKGSKNSKGSKNHNNYPIIYSNVLYELIENVEKEMEKKLSKKPMGELKGTAQILKVFNIAKLGKVAGCIVKKGTISINSNIRILRNDKVIYMGKIISIKIVKEEKTQVTEADECGIGFDNFLDFEPNDIIEAYEN
modifications: bait human Fc-tagged dimer
In the case of B5, the binding score stood at 1.02.

B6: 50 (protein)
chain: ANAFYVDNGQEMLIKEKEHYSSDSEHHKEESASIGNLNVFFPAENYHFSTYMGFDRRSFLPSNEIELEKMIGANFANEVKNYCSRQNVAQKIGDYLNIAFEYSRALEELRSEMILDFNKRKHLTNNADDTILHMIENAEKRKNDPNYKEAYENKDYANNANIFMNEYSNPLSTKYNKILKEYLCHLFVNNPGTKPLERLYYNSLALGELVEPIRNKFKSLASSTIDFNYEIHMASASNIYLLAHFLVLSLAYLSYNEYFTTGTKSFYSLPTILTANSDNSFFMLNEMCNIHYNPNKNFKKDITFIPIESRPKRTTTFYGERRLTCDLLELVLNAIMLININEINNVFSNNNVDGYENSLSFSHNAIRIFSKVCPKINNDNVLKCEFEESSLYNPKIIKNDASEKSSQKNLKKAFDLLRTYAEIEGHSAEGSTSPYYVSLILDDMKYNDFYKYTLWYEPRELIYGDIRGMQMKKKKKTKYIYNDFMKKSTQLKKKLIKNDLKYNLKSKGLVFLYAMIDKYGSILNKAQKAKVQFLNSASSIRYYLYLNKVIFKSAKTYLDIMKRVLEELQTSTNTPLKFLVRGNYIENINNIARNDNMFYANLFVLTALSRRDPVKDYYNDKRKMLSATLAEKFANSASMLIPHKLRKLVVSMKKGLLKKKLLTSLAKVKLLQHIPAHMLENIASSIRFTTHTIATMQIIQNAKYMSKHNFAQYDSKGMLARQIFTKGGFAEYADNLMAKWFSKGFEEYKREQIENFKMENSIDSELKDSEREDENDASEESAKKKLQDLQLEEREKMKKENSLLFNQADKWDQFINKELVRALGLWLEFNDNPANAASFVYKVVEDSKHLLENNIDNNIIFSRTVKPTKQTAFRRFFNKILSLGNMLLRKPSFRVEHALWFGATIDIKKAFILLEKVSELHKMLNNQDESWLINEAFIEIVDHVVDLSTYKHVREPFGVARNPGMMAINPKYAELSHENRLRELQNSMCADHCSSVWKVISSFALHHLKNPDSLHTYESKFSKNSFGNKIDDKDFVHNFKMILGGDAVLHYFDNLLPKTMKKDLKAMKYGVSLTSAYSLKLTKIIFSQMQLPYLSQMFYMQAPYFGHFIGKWQKKRQQSRLKEIMSFMTLGSLSAYTLFSAMDITQQAKDIGAGPVASCFTTRMSPPQQICLNSVVNAALSTSTQSAMKCVFSV
modifications: bait human Fc-tagged dimer
B6 registered a binding score of 1.17.

B7: 34 (protein)
chain: TKKKVSVSEINFDSAVDDVQWCGNNHMTVLVKTVKGRLYRSSDGGKIWTNIAGNLADKENNKADPSSNHMNEMTTVDLIMVNSVNKNIVLIIGNQKNHYISEDSGETFRLLNYQNKINFWQFHSTKTHWALVSSWTEACYSNDDNSGECMQTLSLTKDLGRTFQLIDIYVVQFNWGDKESHLEDTIYYTRHKNRNGHQQRFSGWSKDVDFVATHNFGKSVDVLVKQGNKFLISNGYIFVAKLNDVIKQTVNMMVSTDGGKTFNKANLPENIHEKSYTVLDTSEGSIMLHVNHGTSSEKINTGNVYISDASGLNYALSLPNNIRTSSGECEFDRVLSLDGVYIANFLDVNNEIKDEDLRFQNFKSAIEEDIAPFETNTEKRKKQYNKGKNEDAVRTVISFNKGGEWSYLKAPKVDSRGNKYECGDNCYLHLHGITNYHQYAPFYSIENAVGIIMGTGNVGSHLRYESDEVNTFLSRDGGVTWIEAHKGPYIYEYGDYGGLIVMADDLRKTNQIVFSWNEGQSWFDFELGQFSIDVDNIVAEPNSASVEFLVYGTRNDVGVLYHLDFNALGQPLCKGLWAADSVSSDYETWSPTSGNFNDKCILGRKITYTRRKQTSECFNGKDLKRTVDKKPCECTPEDYECETGFTRKIGSYECKPNDPTLTIEGCTSSSYFYANAYRKVPGDICVNGWVPEKVPVPCPSYAPFNKAAK
modifications: bait human Fc-tagged dimer
Take B7: the binding score was 0.648.

B8: 45 (protein)
chain: GEEKLTKFDPVMIKEGELFGEVSYDCEYSGFLEIENDDILYYCFFVGEDDHNGLLLRKFHMDDMVWGIPMEVLITRKKINLYILTVDYILSKLILIYSFDEKIRITVFNNYMEESVMSEKISINYEILYKANMISYITYFYKNKKSLCVCGMNRNENILCTFSFDYGLTMKDDHTIEFFLKKKIPLGHYKMQVTFKETEVYFNLYNDLNEANFYELKCVKKQDEYICDIMNKIRETQEYNYKRYTYPSSEHNKYYNDHHNKQPQGKQGQQGGAPLPNLGEEENNFIYKHIVRNKYFQMIVFQKDQKCYLAWSFNSLNINDEITKEISSVPCSNVASYYRQERLIVTLKKNQLGSRNHFFLIYEKLTEKGVGCEFGVGGSLYVTKTFMNNACDMDINNMNVATTNYDEINFALIIPLSFQLNYATCFIWEENVDNNEERSSLYYLEEYTNEKEDIKVYTFYFYKYILIYKNFKKSTCTFESKNNEKLYISFRGDTYYKEYNCNILLDSCDFFLHTQSKINIAYDDDVWQVSEELYDGFVMYNGAYVSLYDVLSRSNAHGLIYIDGKENNAAINLNNIKNNNNNNNNNNNNNNAANNNNIANNANSNNAFGEHEKVITIIIPYGIPSTRTIKIEFLNKQNNEEKRWAYLRLQKNEYIMKKVIGINSADIFDLSYKYYKYNQEKIKFILNDFSETTYLGFICQTKEEIKKSLCTISLVDHSHKNMAINNLFKTNNHILPFLYDQSPPRKIQPYNQIISEFRFVLFKNFHLFLQENKINYILLKCMCSSSSSYINTQKNIELSYLITNEQVSHDFIHTPGILIRPRTNIAHNDYQKNNKGNHKGNNKANNKANDKDSNNNANNNANKNGNNHNDNNNNNQNKDIDINSNYAIHNNNEKVKRTKKKINDAPYDKQDEELPSYDFNDLLHEKKNGASVFDFNFVLFLFICITFF
modifications: bait human Fc-tagged dimer
B8 returned a binding score of 1.05.
